Reference: article PMC8389370, “pUL21 is a viral phosphatase adaptor that promotes herpes simplex virus replication and spread” (PLoS Pathogens, 2021)

Target: T1, StrepII-CERT (human, UniProt Q9Y5P4-2 1-598, predominantly hyperphosphorylated (CERT^P); sites not given)
T1 construct: human CERT, UniProt Q9Y5P4-2, codon-optimised synthetic gene in pcDNA-SW; also called Strep-CERT; CERT^P; source: Freestyle 293F cells, transfected, purified (StrepTrap HP, SEC); not shown: StrepII-tag, N-terminal, kept
T1 sequence (looked up): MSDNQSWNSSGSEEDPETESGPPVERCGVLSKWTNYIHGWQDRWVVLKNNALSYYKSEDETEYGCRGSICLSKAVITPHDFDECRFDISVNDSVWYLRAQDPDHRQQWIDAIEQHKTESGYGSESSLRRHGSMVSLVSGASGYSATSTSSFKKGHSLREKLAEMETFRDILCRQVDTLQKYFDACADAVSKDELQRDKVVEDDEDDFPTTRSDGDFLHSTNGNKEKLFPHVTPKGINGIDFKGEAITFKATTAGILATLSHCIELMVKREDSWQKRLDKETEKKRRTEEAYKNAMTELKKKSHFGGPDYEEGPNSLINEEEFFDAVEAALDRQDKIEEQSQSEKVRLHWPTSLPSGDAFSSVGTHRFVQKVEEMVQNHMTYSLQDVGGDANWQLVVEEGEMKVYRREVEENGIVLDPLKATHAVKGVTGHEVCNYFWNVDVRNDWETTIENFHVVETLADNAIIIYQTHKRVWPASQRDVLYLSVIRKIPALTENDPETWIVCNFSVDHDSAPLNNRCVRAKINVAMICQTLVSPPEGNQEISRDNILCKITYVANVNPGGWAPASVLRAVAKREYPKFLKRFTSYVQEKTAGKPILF
Experiment: pull-down; pUL21-GST (1 μM) on glutathione magnetic beads, 5 μM purified prey, 60 min at room temperature, 20 mM Tris pH 8.5, 200 mM NaCl, 0.1% NP-40, 1 mM DTT, 1 mM EDTA; eluted with glutathione, Coomassie SDS-PAGE
Settings: both partners purified

B1: pUL21-GST (natural protein)
chain: MELSYATTMHYRDVVFYVTTDRNRAYFVCGGCVYSVGRPCASQPGEIAKFGLVVRGTGPDDRVVANYVRSELRQRGLQDVRPIGEDEVFLDSVCLLNPNVSSELDVINTNDVEVLDECLAEYCTSLRTSPGVLISGLRVRAQDRIIELFEHPTIVNVSSHFVYTPSPYVFALAQAHLPRLPSSLEALVSGLFDGIPAPRQPLDAHNPRTDVVITGRRAPRPIAGSGAGSGGAGAKRATVSEFVQVKHIDRVGPAGVSPAPPPNNTDSSSLVPGAQDSAPPGPTLRELWWVFYAADRALEEPRADSGLTREEVRAVRGFREQAWKLFGSAGAPRAFIGAALGLSPLQKLAVYYYIIHRERRLSPFPALVRLVGRYTQRHGLYVPRPDDPVLADAINGLFRDALAAGTTAEQLLMFDLLPPKDVPVGSDVQADSTALLRFIESQRLAVPGGVISPEHVAYLGAFLSVLYAGRGRMSAATHTARLTGVTSLVLAVGDVDRLSAFDRGAAGAASRTRAAGYLDVLLTVRLARSQHGQSV
notes: HSV-1 strain KOS pUL21, UniProt F8RG07; the plasmid for the GST fusion is not described; also called Purified recombinant pUL21-GST; source: E. coli T7 Express lysY/Iq, purified (glutathione Sepharose 4B, SEC)
B1: binds.
